# Data: patent US20230002496A1 (STAIDSON BEIJING BIOPHARMACEUTICALS, published 2023)
# T1: human GM-CSFRα, full length on cells (human, UniProt P15509 23-400)
# T1 sequence: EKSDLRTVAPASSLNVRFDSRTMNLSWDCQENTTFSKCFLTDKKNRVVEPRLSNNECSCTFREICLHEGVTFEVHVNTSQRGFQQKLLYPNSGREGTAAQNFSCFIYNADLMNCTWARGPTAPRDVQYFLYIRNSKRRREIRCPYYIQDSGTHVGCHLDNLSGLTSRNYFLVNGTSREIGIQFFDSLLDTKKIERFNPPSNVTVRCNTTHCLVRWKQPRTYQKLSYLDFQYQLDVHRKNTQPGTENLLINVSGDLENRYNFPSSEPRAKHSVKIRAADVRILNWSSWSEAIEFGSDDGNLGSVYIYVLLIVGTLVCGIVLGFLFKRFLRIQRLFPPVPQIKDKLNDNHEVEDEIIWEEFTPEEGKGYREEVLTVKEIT
# Biological target: T1, human GM-CSFRα, full length on cells
# Assay: cell-based or functional assay
row,Binder,"IC50, TF-1 cell proliferation [µg/mL]"
1,"E35-scFv LG50N (scFv, V domains shown) VH: QMQLVQSGAEVKKPGASVKVSCKVSGYTLTELSIHWVRQAPGKGLEWMGGFDPEDGETIYAQKFQGRVTMTGDTSTDTAYLELSSLRSEDTALYYCATGRYTSLATTYGFDYWGQGTLVTVSS VL: EIVMTQSPATLSLSPGERATLSCRASQSVSSYLAWYQQKPGQAPRLLIYNASSRATGIPDRFSGSGSGTDFTLTISRLEPEDFAVYYCQQYDNWPYTFGQGTKLEIK",1.59
2,"E35-scFv LD92L (scFv, V domains shown) VH: QMQLVQSGAEVKKPGASVKVSCKVSGYTLTELSIHWVRQAPGKGLEWMGGFDPEDGETIYAQKFQGRVTMTGDTSTDTAYLELSSLRSEDTALYYCATGRYTSLATTYGFDYWGQGTLVTVSS VL: EIVMTQSPATLSLSPGERATLSCRASQSVSSYLAWYQQKPGQAPRLLIYGASSRATGIPDRFSGSGSGTDFTLTISRLEPEDFAVYYCQQYLNWPYTFGQGTKLEIK",0.42
3,"E35-scFv LG50P (scFv, V domains shown) VH: QMQLVQSGAEVKKPGASVKVSCKVSGYTLTELSIHWVRQAPGKGLEWMGGFDPEDGETIYAQKFQGRVTMTGDTSTDTAYLELSSLRSEDTALYYCATGRYTSLATTYGFDYWGQGTLVTVSS VL: EIVMTQSPATLSLSPGERATLSCRASQSVSSYLAWYQQKPGQAPRLLIYPASSRATGIPDRFSGSGSGTDFTLTISRLEPEDFAVYYCQQYDNWPYTFGQGTKLEIK",1.86
4,"E35-scFv LG50L (scFv, V domains shown) VH: QMQLVQSGAEVKKPGASVKVSCKVSGYTLTELSIHWVRQAPGKGLEWMGGFDPEDGETIYAQKFQGRVTMTGDTSTDTAYLELSSLRSEDTALYYCATGRYTSLATTYGFDYWGQGTLVTVSS VL: EIVMTQSPATLSLSPGERATLSCRASQSVSSYLAWYQQKPGQAPRLLIYLASSRATGIPDRFSGSGSGTDFTLTISRLEPEDFAVYYCQQYDNWPYTFGQGTKLEIK",3.9
5,"E35-scFv LG50E (scFv, V domains shown) VH: QMQLVQSGAEVKKPGASVKVSCKVSGYTLTELSIHWVRQAPGKGLEWMGGFDPEDGETIYAQKFQGRVTMTGDTSTDTAYLELSSLRSEDTALYYCATGRYTSLATTYGFDYWGQGTLVTVSS VL: EIVMTQSPATLSLSPGERATLSCRASQSVSSYLAWYQQKPGQAPRLLIYEASSRATGIPDRFSGSGSGTDFTLTISRLEPEDFAVYYCQQYDNWPYTFGQGTKLEIK",29.9
6,"E35-scFv LG50Y (scFv, V domains shown) VH: QMQLVQSGAEVKKPGASVKVSCKVSGYTLTELSIHWVRQAPGKGLEWMGGFDPEDGETIYAQKFQGRVTMTGDTSTDTAYLELSSLRSEDTALYYCATGRYTSLATTYGFDYWGQGTLVTVSS VL: EIVMTQSPATLSLSPGERATLSCRASQSVSSYLAWYQQKPGQAPRLLIYYASSRATGIPDRFSGSGSGTDFTLTISRLEPEDFAVYYCQQYDNWPYTFGQGTKLEIK",32
7,"E35-scFv LD92R (scFv, V domains shown) VH: QMQLVQSGAEVKKPGASVKVSCKVSGYTLTELSIHWVRQAPGKGLEWMGGFDPEDGETIYAQKFQGRVTMTGDTSTDTAYLELSSLRSEDTALYYCATGRYTSLATTYGFDYWGQGTLVTVSS VL: EIVMTQSPATLSLSPGERATLSCRASQSVSSYLAWYQQKPGQAPRLLIYGASSRATGIPDRFSGSGSGTDFTLTISRLEPEDFAVYYCQQYRNWPYTFGQGTKLEIK",0.495
8,"E35-scFv LD92V (scFv, V domains shown) VH: QMQLVQSGAEVKKPGASVKVSCKVSGYTLTELSIHWVRQAPGKGLEWMGGFDPEDGETIYAQKFQGRVTMTGDTSTDTAYLELSSLRSEDTALYYCATGRYTSLATTYGFDYWGQGTLVTVSS VL: EIVMTQSPATLSLSPGERATLSCRASQSVSSYLAWYQQKPGQAPRLLIYGASSRATGIPDRFSGSGSGTDFTLTISRLEPEDFAVYYCQQYVNWPYTFGQGTKLEIK",0.387
9,"E35-scFv LG50R (scFv, V domains shown) VH: QMQLVQSGAEVKKPGASVKVSCKVSGYTLTELSIHWVRQAPGKGLEWMGGFDPEDGETIYAQKFQGRVTMTGDTSTDTAYLELSSLRSEDTALYYCATGRYTSLATTYGFDYWGQGTLVTVSS VL: EIVMTQSPATLSLSPGERATLSCRASQSVSSYLAWYQQKPGQAPRLLIYRASSRATGIPDRFSGSGSGTDFTLTISRLEPEDFAVYYCQQYDNWPYTFGQGTKLEIK",2.79
10,"E35-scFv LD92Q (scFv, V domains shown) VH: QMQLVQSGAEVKKPGASVKVSCKVSGYTLTELSIHWVRQAPGKGLEWMGGFDPEDGETIYAQKFQGRVTMTGDTSTDTAYLELSSLRSEDTALYYCATGRYTSLATTYGFDYWGQGTLVTVSS VL: EIVMTQSPATLSLSPGERATLSCRASQSVSSYLAWYQQKPGQAPRLLIYGASSRATGIPDRFSGSGSGTDFTLTISRLEPEDFAVYYCQQYQNWPYTFGQGTKLEIK",0.328
11,"E35-scFv LD92T (scFv, V domains shown) VH: QMQLVQSGAEVKKPGASVKVSCKVSGYTLTELSIHWVRQAPGKGLEWMGGFDPEDGETIYAQKFQGRVTMTGDTSTDTAYLELSSLRSEDTALYYCATGRYTSLATTYGFDYWGQGTLVTVSS VL: EIVMTQSPATLSLSPGERATLSCRASQSVSSYLAWYQQKPGQAPRLLIYGASSRATGIPDRFSGSGSGTDFTLTISRLEPEDFAVYYCQQYTNWPYTFGQGTKLEIK",0.494
12,"E35-scFv LD92W (scFv, V domains shown) VH: QMQLVQSGAEVKKPGASVKVSCKVSGYTLTELSIHWVRQAPGKGLEWMGGFDPEDGETIYAQKFQGRVTMTGDTSTDTAYLELSSLRSEDTALYYCATGRYTSLATTYGFDYWGQGTLVTVSS VL: EIVMTQSPATLSLSPGERATLSCRASQSVSSYLAWYQQKPGQAPRLLIYGASSRATGIPDRFSGSGSGTDFTLTISRLEPEDFAVYYCQQYWNWPYTFGQGTKLEIK",0.342
13,"E35-scFv LG50H (scFv, V domains shown) VH: QMQLVQSGAEVKKPGASVKVSCKVSGYTLTELSIHWVRQAPGKGLEWMGGFDPEDGETIYAQKFQGRVTMTGDTSTDTAYLELSSLRSEDTALYYCATGRYTSLATTYGFDYWGQGTLVTVSS VL: EIVMTQSPATLSLSPGERATLSCRASQSVSSYLAWYQQKPGQAPRLLIYHASSRATGIPDRFSGSGSGTDFTLTISRLEPEDFAVYYCQQYDNWPYTFGQGTKLEIK",4.29
14,"E35-scFv LG50C (scFv, V domains shown) VH: QMQLVQSGAEVKKPGASVKVSCKVSGYTLTELSIHWVRQAPGKGLEWMGGFDPEDGETIYAQKFQGRVTMTGDTSTDTAYLELSSLRSEDTALYYCATGRYTSLATTYGFDYWGQGTLVTVSS VL: EIVMTQSPATLSLSPGERATLSCRASQSVSSYLAWYQQKPGQAPRLLIYCASSRATGIPDRFSGSGSGTDFTLTISRLEPEDFAVYYCQQYDNWPYTFGQGTKLEIK",25.7
15,"E35-scFv LD92A (scFv, V domains shown) VH: QMQLVQSGAEVKKPGASVKVSCKVSGYTLTELSIHWVRQAPGKGLEWMGGFDPEDGETIYAQKFQGRVTMTGDTSTDTAYLELSSLRSEDTALYYCATGRYTSLATTYGFDYWGQGTLVTVSS VL: EIVMTQSPATLSLSPGERATLSCRASQSVSSYLAWYQQKPGQAPRLLIYGASSRATGIPDRFSGSGSGTDFTLTISRLEPEDFAVYYCQQYANWPYTFGQGTKLEIK",0.282
